Experiment [1] has as its target HIV-1 MN gp120 (HIV-1 MN) (UniProt P05877). The experiment can be described thus: RIA of hybridoma supernatant on live HIV-1MN-infected against uninfected H9 cells, 125I rabbit anti-mouse IgG.
The target of experiment [2] is HIV-1 RF gp120 (HIV-1 RF) (UniProt P04579). Nature of the experiment: cell-based or functional assay.
In experiment [3] the target is HIV-1 IIIB gp120 (HIV-1 IIIB) (UniProt P03375). Nature of the experiment: cell-based or functional assay.
Experiment [4] has as its target HIV-1 MN gp120 (HIV-1 MN) (UniProt P05877). The experiment can be described thus: cell-based or functional assay.
The target is the same in experiment [5]. The experiment can be described thus: ELISA of hybridoma supernatant on membranes of MN-infected against uninfected H9 cells. (An ELISA detects its analyte on a solid surface through an enzyme-linked reagent.)

Sequence of UniProt P05877 (P05877 32-856): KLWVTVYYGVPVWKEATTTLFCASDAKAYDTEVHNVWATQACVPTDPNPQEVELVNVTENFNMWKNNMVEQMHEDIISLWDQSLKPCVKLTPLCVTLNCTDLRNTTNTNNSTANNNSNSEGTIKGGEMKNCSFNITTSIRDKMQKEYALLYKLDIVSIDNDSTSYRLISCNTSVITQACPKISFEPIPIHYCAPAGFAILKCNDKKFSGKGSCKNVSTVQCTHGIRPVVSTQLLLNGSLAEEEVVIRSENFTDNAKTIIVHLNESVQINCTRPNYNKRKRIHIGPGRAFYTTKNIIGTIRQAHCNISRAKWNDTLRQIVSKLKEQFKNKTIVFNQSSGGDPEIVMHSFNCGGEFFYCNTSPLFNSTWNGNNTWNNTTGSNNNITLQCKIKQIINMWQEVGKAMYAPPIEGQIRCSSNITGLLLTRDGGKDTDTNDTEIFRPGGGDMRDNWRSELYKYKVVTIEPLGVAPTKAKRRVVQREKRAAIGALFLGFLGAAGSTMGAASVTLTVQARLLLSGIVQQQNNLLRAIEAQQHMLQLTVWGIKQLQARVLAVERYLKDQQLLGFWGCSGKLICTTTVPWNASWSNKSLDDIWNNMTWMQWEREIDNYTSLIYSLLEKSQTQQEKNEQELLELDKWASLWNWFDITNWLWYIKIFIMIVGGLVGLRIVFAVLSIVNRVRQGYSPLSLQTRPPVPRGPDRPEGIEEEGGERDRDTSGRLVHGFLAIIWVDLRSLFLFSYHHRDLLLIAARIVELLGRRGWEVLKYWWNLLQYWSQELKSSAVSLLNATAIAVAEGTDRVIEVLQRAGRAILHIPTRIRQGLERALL
Sequence of UniProt P04579 (P04579 32-865): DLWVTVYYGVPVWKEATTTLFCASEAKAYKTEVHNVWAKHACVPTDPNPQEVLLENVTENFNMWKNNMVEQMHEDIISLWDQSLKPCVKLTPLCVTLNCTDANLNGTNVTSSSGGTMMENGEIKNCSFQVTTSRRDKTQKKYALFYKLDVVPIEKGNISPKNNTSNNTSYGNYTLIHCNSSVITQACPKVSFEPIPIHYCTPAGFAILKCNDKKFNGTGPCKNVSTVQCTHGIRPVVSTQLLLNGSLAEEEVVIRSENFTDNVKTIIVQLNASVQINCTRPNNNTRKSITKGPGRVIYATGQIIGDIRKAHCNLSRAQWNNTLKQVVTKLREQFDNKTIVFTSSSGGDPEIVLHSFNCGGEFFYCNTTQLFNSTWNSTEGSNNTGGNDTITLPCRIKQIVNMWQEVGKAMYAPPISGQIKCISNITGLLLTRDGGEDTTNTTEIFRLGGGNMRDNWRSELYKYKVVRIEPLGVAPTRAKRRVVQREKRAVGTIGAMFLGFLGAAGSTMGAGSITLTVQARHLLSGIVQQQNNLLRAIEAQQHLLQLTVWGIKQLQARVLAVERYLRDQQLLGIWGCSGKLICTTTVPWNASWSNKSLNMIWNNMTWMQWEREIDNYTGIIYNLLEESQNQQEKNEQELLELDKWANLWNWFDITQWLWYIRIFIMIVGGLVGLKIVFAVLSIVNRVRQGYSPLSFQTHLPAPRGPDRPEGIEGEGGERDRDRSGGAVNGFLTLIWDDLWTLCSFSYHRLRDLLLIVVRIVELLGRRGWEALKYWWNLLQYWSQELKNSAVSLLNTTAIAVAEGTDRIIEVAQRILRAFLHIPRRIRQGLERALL

Turning to monoclonal antibody NM-01, the RIA Ratio cpm inf/cpm uninf in experiment [1] amounted to 9.81. In addition, in experiment [2], the ID50, live RF virus, reverse transcriptase assay was 0.05 µg/mL; the ID50, syncytium formation by RF-infected cells is 4 µg/mL; the percent inhibition of syncytium formation by RF-infected cells at 25 µg antibody was 59%. Also, in experiment [3], the ID50, live IIIB virus, MT-2 assay came out at 0.1 µg/mL; the ID50, live IIIB virus, reverse transcriptase assay came to 0.1 µg/mL; the ID50, syncytium formation by IIIB-infected H9 cells with C8166 cells is 3 µg/mL; the percent inhibition of syncytium formation by IIIB-infected cells at 25 µg antibody is 85%. In experiment [4], this substance displayed an ID50, live MN virus, MT-2 assay of 2 µg/mL; an ID50, live MN virus, reverse transcriptase assay of less than 1 µg/mL; an ID50, syncytium formation by MN-infected H9 cells with C8166 cells of 2 µg/mL; a percent inhibition of syncytium formation by MN-infected cells at 25 µg antibody of 85%. In addition, in experiment [5], the ELISA ratio, infected cell membranes to uninfected cell membranes (Run 1) was found to be 5.76.
